Test results published in patent US20260048158A1 (AKTIS ONCOLOGY, published 2026).
Substitutions are numbered along the chain they refer to. Primed or numbered codes have the meaning given here. The star is where a group is joined. Biotin = O=C1N[C@H]2[C@H](CS[C@H]2CCCCC(=O)*)N1; PEG4′ = not defined here

B1: Compound C234 (designed binder)
chain: CAXEKIAALSEIIWLPCLTYAQIXAFIAALNDDPCQSSEILSEAKELCS
modifications: (Kme3) trimethyllysine at 3; (Kme2) dimethyllysine at 24; N-terminal Biotin-PEG4; C-terminal NH2; two disulfide bridges among Cys1, Cys17, Cys35, Cys48
notes: also called C298
B2: Compound C300 (designed binder)
chain: B1 chain with X3R, S38A
modifications: (Kme2) at 24; N-terminal Biotin-PEG4; C-terminal NH2; two disulfide bridges among Cys1, Cys17, Cys35, Cys48
B3: Compound C302 (designed binder)
chain: B1 chain with X3R, S38A, E39N, K45X
modifications: (Kme) monomethyllysine at 24 and 45; N-terminal Biotin-PEG4; C-terminal NH2; two disulfide bridges among Cys1, Cys17, Cys35, Cys48
B4: Compound C304 (designed binder)
chain: B1 chain with K45X
modifications: (Kme3) at 3; (Kme) at 24 and 45; N-terminal Biotin-PEG4; C-terminal NH2; two disulfide bridges among Cys1, Cys17, Cys35, Cys48
B5: Compound C310 (designed binder)
chain: B1 chain with T19N, K45X
modifications: (Kme3) at 3; (Kme) at 24 and 45; N-terminal Biotin-PEG4; C-terminal NH2; two disulfide bridges among Cys1, Cys17, Cys35, Cys48
B6: Compound C312 (designed binder)
chain: B1 chain with Q36N, K45X
modifications: (Kme3) at 3; (Kme) at 24 and 45; N-terminal Biotin-PEG4; C-terminal NH2; two disulfide bridges among Cys1, Cys17, Cys35, Cys48
B7: Compound C316 (designed binder)
chain: B1 chain with A29R, S38A, K45X
modifications: (Rme) methylated arginine at 3; (Kme) at 24 and 45; N-terminal Biotin-PEG4; C-terminal NH2; two disulfide bridges among Cys1, Cys17, Cys35, Cys48
B8: Compound C306 (designed binder)
chain: B1 chain with A28X, K45X
modifications: (Kme3) at 3; (Kme) at 24, 28 and 45; N-terminal Biotin-PEG4; C-terminal NH2; two disulfide bridges among Cys1, Cys17, Cys35, Cys48
B9: Compound C308 (designed binder)
chain: B1 chain with A29X, D32X, K45X
modifications: (Kme3) at 3; (Kme) at 24, 29, 32 and 45; N-terminal Biotin-PEG4; C-terminal NH2; two disulfide bridges among Cys1, Cys17, Cys35, Cys48
B10: Compound C318 (designed binder)
chain: B1 chain with A29X, D32X, K45X
modifications: (Kme3) at 3; (Kme2) at 24; (Kme) at 29 and 45; (Cit) citrulline at 32; N-terminal Biotin-PEG4; C-terminal NH2; two disulfide bridges among Cys1, Cys17, Cys35, Cys48
B11: Compound C608 (designed binder)
chain: B1 chain with E11X, Q36N, K45X
modifications: (Kme3) at 3; (E(CO-)) at 11 and (K(NH-)) at 45 joined by a lactam bridge; (Kme) at 24; N-terminal Biotin-PEG4; C-terminal NH2; two disulfide bridges
notes: Three constraints (two disulfide bridges, one lactam bridge)
B12: Compound C245 (designed binder)
chain: CAKEKIAALSEIIWLPCLTYAQIXAFIAALNDDPCQSSELLSEAKELNDSQCP
modifications: (homo-leucine) at 24; N-terminal Biotin-PEG4; C-terminal NH2; disulfide bridges between cysteine pairs (Cys1-Cys35 and Cys17-Cys52 named for SEQ ID NO: 213)
B13: Compound C253 (designed binder)
chain: B12 chain
modifications: (Kme2) at 24; N-terminal Biotin-PEG4; C-terminal NH2; disulfide bridges between cysteine pairs
B14: Compound C255 (designed binder)
chain: B12 chain
modifications: (Kme3) at 24; N-terminal Biotin-PEG4; C-terminal NH2; disulfide bridges between cysteine pairs

target: T1, B7-H3 expressed on the surface of cells (MCF7 cells; B7-H3-expressing cancer cells) (Homo sapiens (Human), UniProt Q5ZPR3 29-534); test: DELFIA competition on live MCF7 cells expressing B7-H3; fixed tracer: europium-chelate miniprotein
T1 construct: Endogenous B7-H3 on MCF7 cells (DELFIA) and on an unnamed cancer cell line (flow cytometry); also called CD276
T1 sequence: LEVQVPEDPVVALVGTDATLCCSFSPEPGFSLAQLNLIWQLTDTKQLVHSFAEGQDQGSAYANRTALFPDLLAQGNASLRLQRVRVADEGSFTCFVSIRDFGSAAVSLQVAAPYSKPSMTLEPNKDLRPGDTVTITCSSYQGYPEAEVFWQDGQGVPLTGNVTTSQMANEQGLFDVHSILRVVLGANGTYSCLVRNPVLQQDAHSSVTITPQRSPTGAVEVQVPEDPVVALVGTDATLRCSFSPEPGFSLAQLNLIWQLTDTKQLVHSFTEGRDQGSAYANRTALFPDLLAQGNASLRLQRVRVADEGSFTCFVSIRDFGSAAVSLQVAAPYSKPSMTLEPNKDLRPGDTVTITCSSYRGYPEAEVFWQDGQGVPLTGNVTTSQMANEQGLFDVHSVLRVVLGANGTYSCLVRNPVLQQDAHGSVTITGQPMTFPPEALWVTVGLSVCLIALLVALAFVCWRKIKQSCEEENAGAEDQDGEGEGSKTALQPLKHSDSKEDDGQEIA
Procedure: (§1) Equilibrium binding affinity (KD) was determined using SPR (as in Example 2) or a live cell binding assay (DELFIA) on MCF7 cells that express B7-H3. Binding inhibition constant (Kᵢ) of miniprotein ligands was also determined using MCF7 cells expressing a B7-H3. Cells were dispensed into a 384-well plate and incubated at 37° C. in 5% CO₂ overnight.
(§2) The plate was incubated for 1.5 h at room temperature to reach equilibrium. Cells were then washed to remove unbound ligand and treated according to manufacturer instructions for a DELFIA® (dissociation-enhanced lanthanide fluorescent immunoassay, Revvity Health Sciences). In brief, 2 M HCl was added to each well and incubated for 2 h at 37° C. Following this step, 2 M NaOH and fluorescent inducer solution were added to each well and incubated for 30 minutes at room temperature. Plates were read on an Envision plate reader and a curve-fitting model was applied to estimate KD and Kᵢ values.

| Binder | Ki [nM] |
| --- | --- |
| B1 | 1.72 |
| B2 | 1.91 |
| B3 | 1.34 |
| B4 | 2.24 |
| B5 | 0.886 |
| B6 | 1.01 |
| B7 | 0.873 |
| B8 | 1.24 |
| B9 | 0.872 |
| B10 | 1.24 |
| B11 | 3.58 |

target: T2, His-tagged B7-H3 protein (ThermoFisher, catalog #B7-H3_NP_001019907) (Homo sapiens (Human), UniProt Q5ZPR3 29-466); test: SPR (as in Example 2)
T2 construct: Bought protein immobilised for SPR; also called ligand; target protein; not shown: His tag
T2 sequence: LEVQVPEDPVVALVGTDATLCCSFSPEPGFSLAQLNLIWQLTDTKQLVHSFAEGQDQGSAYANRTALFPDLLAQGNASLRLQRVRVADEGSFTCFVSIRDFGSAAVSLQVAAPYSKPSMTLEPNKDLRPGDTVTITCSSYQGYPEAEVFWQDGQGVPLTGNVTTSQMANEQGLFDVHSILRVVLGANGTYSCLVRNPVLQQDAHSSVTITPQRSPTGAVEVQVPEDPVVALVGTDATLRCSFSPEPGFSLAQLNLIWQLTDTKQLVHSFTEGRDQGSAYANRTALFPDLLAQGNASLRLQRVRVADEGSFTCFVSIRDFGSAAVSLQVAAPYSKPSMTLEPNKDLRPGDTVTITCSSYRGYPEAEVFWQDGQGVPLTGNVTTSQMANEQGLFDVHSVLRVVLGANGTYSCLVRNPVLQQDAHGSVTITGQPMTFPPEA
Procedure: Surface plasmon resonance (SPR) analyses were performed using Biacore T200 (GE Healthcare). His-tagged B7-H3 protein (ThermoFisher, catalog #B7-H3_NP_001019907), (“ligand”) was immobilized to a Series S NTA chip (Cytiva #28994951). Running buffer was 0.05% Surfactant P20 in HEPES buffered saline (HBS-P), pH 7.4 (Cytiva). Immobilization was performed at 25° C. […] Pulsatile injections were made to target a specific immobilization level. […] Increase in signal (RU) is proportional to an increase in binding events between the analyte and ligand surface. Then injection was then stopped, and dissociation was measured. The resulting sensorgram is reference surface and blank injection subtracted prior to curve fitting. […] KD was calculated using a 1:1 binding model at 25° C.
as §1

| Binder | Kd [nM] |
| --- | --- |
| B1 | 1.36 |
| B2 | 0.506 |
| B3 | 0.558 |
| B4 | 1.43 |
| B5 | 0.782 |
| B6 | 0.485 |
| B7 | 0.621 |
| B8 | 0.761 |
| B9 | 0.482 |
| B10 | 1.24 |

target: T1, B7-H3 expressed on the surface of cells …; test: DELFIA competition on cells expressing B7-H3 (as in Example 14); competitor: europium-chelate miniprotein tracer

| Binder | Ki [nM] |
| --- | --- |
| CAREKIAALSEIIWLPCLTYAQIXAFIAALNDDPCQSSEILSEAKELCS (designed binder, (Kme2) at 24; N-terminal Biotin-PEG4; C-terminal NH2; two disulfide bridges) [Compound C275] | 1.42 |
| {Biotin-PEG4′}-CAREKIAALSEIIWLPCLTYAQIQAFIAALNDDPCQSSEILSEAKELCS-NH2 (designed binder, disulfide (positions not given here)) [Compound C290] | 13.8 |
| {Biotin-PEG4′}-CAREKIAALSEIIWLPCLTYAQIKAFIAALNDDPCQSSEILSEAKELCS-NH2 (designed binder, disulfide (positions not given here)) [Compound C284] | 2.02 |
| {Biotin-PEG4′}-CAREKIAALSEIIWLPCLTYAQILAFIAALNDDPCQSSEILSEAKELCS-NH2 (designed binder, disulfide (positions not given here)) [Compound C286] | 23.9 |
| {Biotin-PEG4′}-CAREKIAALSEIIWLPCLTYAQIVAFIAALNDDPCQSSEILSEAKELCS-NH2 (designed binder, disulfide (positions not given here)) [Compound C291] | 7.7 |
| B12 | 2.8 |
| B13 | 5.36 |
| B14 | 8.75 |

target: T1, B7-H3 expressed on the surface of cells …; test: DELFIA competition assay on live MCF7 cells expressing B7-H3; the unlabeled competing ligand is varied against a fixed concentration of the europium-chelate miniprotein tracer
Procedure: as §1, §2

| Binder | IC50 (read off the curve) [nM] |
| --- | --- |
| B1 | ~3 |

target: T1, B7-H3 expressed on the surface of cells …; test: DELFIA on-cell competition assay on MCF7 cells (FIG. 15); single experiment of FIG. 15
Procedure: as §1, §2

| Binder | Ki [nM] |
| --- | --- |
| B1 | ~1.36 |
